Experimental data reported in patent publication US20150111836A1, “CELLULAR APOBEC3 PROTEINS AND MODULATORS THEREOF FOR REGULATING DNA REPAIR PROCESSES AND TREATING PROLIFERATIVE DISEASES” (priority 2012, published 2015).

What was measured:
[1] = system: SC or SU oligonucleotides (80 nt); test: Electrophoretic mobility shift assay (EMSA) of ssDNA binding; conditions: biotinylated SC oligonucleotides (80 nt), FIG. 3B
Experimental: SC (10 pmol) was 3′ labeled with dATP-biotin using 10 u terminal deoxynucleotidyl transferase (NEB) in NEBuffer 4 (NEB) supplemented with 0.25 mM CoCl2 and 10 μM dATP-biotin (Invitrogen). Labeled oligos (200 fmol) were incubated with A3G or RPA for 8 or 30 mM, respectively, at room temperature, in EMSA buffer: 50 mM Tris (pH 7.0), 50 mM NaCl, 0.1 mg/mL BSA and 10% glycerol, in 10 μL, reaction volume. Samples were resolved by 6% native PAGE, transferred to a Hybond N nylon membrane (GE Healthcare) using a semi-dry transfer apparatus (Biorad) and UV-crosslinked (302 nm) for 15 min. Following blocking with Casein blocking buffer (Sigma), the membrane was treated with horseradish peroxidase conjugated sterptavidine (Jackson) for 20 mM at RT, washed 6 times with TBS (pH 7.4) and visualized by enhanced chemiluminescence. […] Following incubation with A3G, samples were resolved by PAGE, stained with SYBR Gold (Molecular Probes) and visualized by UV light (302 nm).

[2] = system: ss-deoxyoligonucleotide substrate; test: Cytidine deaminase activity of purified wild-type and mutant A3G; type: biochemical
Experimental: Deaminase activity of purified enzyme and virion-associated A3G protein was examined as previously described. Briefly, A3G deamination reactions were performed in a total volume of 10 μl in 25 mM Tris, pH 7.0, and 0.01-1 fmol single-stranded (ss) deoxyoligonucleotide substrate at 37° C. The reaction was terminated by heating to 95° C. for 5 min. One μl of the reaction mixture was used for PCR amplification performed in 20 μl buffer S, using the following program: 1 cycle at 95° C. for 3 min, followed by 30 cycles of annealing at 61° C. for 30 s and denaturing at 94° C. for 30 s. Aliquots of the PCR products (10 μl) were incubated with Eco147I restriction enzyme for 1 h at 37° C. Completion of the restriction reaction was verified by using positive-control substrate containing CCU instead of CCC. Restriction-reaction products were loaded onto 14% gels and separated by PAGE. Gels were stained with SYBR gold nucleic acid stain diluted 1:10,000 in 0.5× Tris-Borate-EDTA buffer (TBE, pH 7.8), visualized by UV light (312 nm), captured by an Olympus C-5050 charge-coupled device (CCD) camera and analyzed by optical density (OD) scan using the TINA2.0 densitometry software. Assessment of A3G entrapped in virions was carried out with concentrated viruses stocks of 3-5 μg of p24/μl) suspended in PBS containing Triton X-100 at final concentration of 0.1% (vv) and 50 μg/ml RNase A (Sigma-Aldrich). […]

[3] = system: primer with 3′-terminal CC; test: Terminal cytidine deamination, DNA polymerase primer extension / PCR assay; type: biochemical; conditions: FIG. 4A
Experimental: A3G deaminates the extreme base of the ssDNA 3′-terminus and tethers two ssDNA termini To determine whether A3G interacts with the terminal base of the ssDNA, the inventors tested terminal cytidine deamination by A3G. A primer with 3′-terminal CC was incubated with A3G and was then used for extension and PCR amplification of a target sequence. It was previously shown that A3G W285 residue contributes to formation of a hydrophobic cavity and is essential for catalytic activity. […] A cleavage resistant polynucleotide deaminase substrate, comprising an internal cytidine, was incubated with either A3G or A3G W285A. Upon deamination, the internal uridine-containing polynucleotide was susceptible to restriction, and yielded a fragment which was apparent in the PAGE analysis of the cleaved deamination products shown in FIG. 3C (bottom).

[4] = system: HRind cells (U2OS-DR-GFP); test: DR-GFP HR reporter assay of ISceI-induced DSB repair; type: cell-based; conditions: expression plasmid transfected, 52 hours after ISceI induction, FIG. 11B
Experimental: Repair of a unique ISceI-induced DSB by HR was assessed in U2OS-DR-GFP cells stably transfected with the Cherry-Sce-GR plasmid (HRind cells) as described in Shahar OD et al.. Cherry-ZScel-GR rapidly translocates from the cytoplasm into the nucleus on binding to triamcinolone acetonide (TA). The DR-GFP cassette enables reconstitution of GFP after ZScel-dependent HR between 2 mutated GFP sequences. Transfection of A3G or A3GW285A expression plasmids was performed in 24-well plates with GenJet (Signa-gen). Forty hours after transfection, IScel-directed DSB was induced with 10^7M TA (Sigma-Aldrich). GFP^+ cells were sorted 52 hours later by flow cytometry using FACScan as described in Shahar OD [10].

SupT11 cells = test: γ-H2AX foci in SupT11 cells stably expressing A3G variants after IR; type: cell-based, human; conditions: 24 hours after IR (4 Gy), FIG. 9B
Experimental: Cells were irradiated by exposure to a ^60Co source producing 1 Gy sec^−1 γ-radiation, or mock-irradiated. Following incubation at 37° C., cells were fixed, attached to glass slides by cytospin, permeabilized with detergent and blocked with 10% normal goat serum. Cells were then incubated with A3G-specific rabbit polyclonal antibody, γ-H2AX-specific monoclonal antibody, or RPA32-specific monoclonal antibody, followed by incubation with goat anti-rabbit Cy-5-conjugated antibody, goat anti-mouse Cy-2-conjugated antibody and DAPI. Slides were mounted and examined by Zeiss LSM 710 confocal microscope. Data were collected sequentially using a ×63 objective with 7-fold averaging at a resolution of […], Z-sections were obtained using an optical slice of less than 1 μm. Data were analyzed with the Zen 2009.
To assess whether A3G cytidine deaminase activity is required for DSB repair, the inventors examined whether IR-Induced 7412AX focus formation occurred differentially in SupTH cells stably expressing A3G, an E259Q catalytic mutant (as denoted by SEQ ID NO. 90) or empty vector (EV).

[5] = system: DNA1 and DNA2 ss-oligonucleotides; test: Terminal ssDNA tethering by DNA polymerase terminal extension; type: biochemical; conditions: DNA1+2, FIG. 4D
Experimental: DNA1 and DNA2 were annealed to an equimolar amount of a short oligonucleotide (30 nt) complementary to the 5′-termius by heating to 95° C. followed by slow cooling to RT. DNA-polymerase extension reactions were performed in a total volume of 7 μl and included 100 fmol annealed oligonucleotides, 50 μM dNTPs (dCTP, dGTP, dTTP and dATP-biotin (Invitrogen)), NEBuffer 1 (final dilution ×0.35 (NEB)), 1 mg/ml BSA, 100 fmol A3G or A3G W285A, and 5 u Klenow Fragment (3′→5′ exo(−), NEB). Reactions were incubated for 30 min at 37° C. and terminated by heating to 95° C. for 5 min and adding 5 μl formamide. Samples were then heated to 80° C. prior to loading on pre-heated 10% acrylamide gel containing 6M urea. Gels were washed in Tris-Boric acid-EDTA buffer (ph 8.3) for 15 min and transferred to nylon membranes as described in the EMSA protocol below.
To further investigate A3G-mediated terminal ssDNA tethering, the inventors developed a DNA polymerase extension assay depicted in FIG. 4C. The 5′-termini of two ss-oligonucleotides (DNA1 and DNA2, 80 nt) were annealed to complementary oligonucleotides (30 nt), leaving 3′ ssDNA overhangs. […] As expected, no extension products were detected in the presence or absence of wild-type or mutant A3G (not shown). […]

| Molecule | ssDNA binding properties [1] | catalytic activity (cytidine deamination) ([2]; purified protein, FIG. 3C) | PCR amplification after incubation of the primer [3] | reduction of HR [4] [%] | average DSB load (γ-H2AX focus formation), lower than EV control cells (SupT11 cells) | extension efficiency relative to Klenow fragment alone [5] | dC in the oligonucleotide substrate deaminated ([2]; purified recombinant A3G alone, FIG. 14A) [%] | inhibition of the PCR reaction after incubation of the primer [3] [%] | enhancement of DSB repair (SupT11 cells) |
| --- | --- | --- | --- | --- | --- | --- | --- | --- | --- |
| A3G W285A: A3G W285A catalytic mutant, deaminase-dead control that binds ssDNA (protein, A3G W285A mutant) MKPHFRNTVERMYRDTFSYNFYNRPILSRRNTVWLCYEVKTKGPSRPPLDAKIFRGQVYSELKYHPEMRFFHWFSKWRKLHRDQEYEVTWYISWSPCTKCTRDMATFLAEDPKVTLTIFVARLYYFWDPDYQEALRSLCQKRDGPRATMKIMNYDEFQHCWSKFVYSQRELFEPWNNLPKYYILLHIMLGEILRHSMDPPTFTFNFNNEPWVRGRHETYLCYEVERMHNDTWVLLNQRRGFLCNQAPHKHGFLEGRHAELCFLDVIPFWKLDLDQDYRVTCFTSASPCFSCAQEMAKFISKNKHVSLCIFTARIYDDQGRCQEGLRTLAEAGAKISIMTYSEFKHCWDTFVDHQGCPFQPWDGLDEHSQDLSGRLRAILQNQEN | retained wild-type ssDNA binding properties | catalytically inactive | normal PCR amplification | 6.2 | – | – | – | – | – |
| A3G: wild-type human APOBEC3G, purified with C-terminal His6 tag from 293T cells or expressed in cells (protein, listed as Homo sapiens, C-terminal His6 tag, wild-type human APOBEC3G, purified with C-terminal His6 tag from 293T cells or expressed in cells) MKPHFRNTVERMYRDTFSYNFYNRPILSRRNTVWLCYEVKTKGPSRPPLDAKIFRGQVYSELKYHPEMRFFHWFSKWRKLHRDQEYEVTWYISWSPCTKCTRDMATFLAEDPKVTLTIFVARLYYFWDPDYQEALRSLCQKRDGPRATMKIMNYDEFQHCWSKFVYSQRELFEPWNNLPKYYILLHIMLGEILRHSMDPPTFTFNFNNEPWVRGRHETYLCYEVERMHNDTWVLLNQRRGFLCNQAPHKHGFLEGRHAELCFLDVIPFWKLDLDQDYRVTCFTSWSPCFSCAQEMAKFISKNKHVSLCIFTARIYDDQGRCQEGLRTLAEAGAKISIMTYSEFKHCWDTFVDHQGCPFQPWDGLDEHSQDLSGRLRAILQNQEN | – | – | – | 30.2 | approximately 2 fold | approximately 9 fold | 20 | ~90 | – |
| A3G E259Q: A3G E259Q catalytic mutant stably expressed in SupT11 cells (protein, A3G E259Q mutant, A3G E259Q catalytic mutant stably expressed in SupT11 cells) MKPHFRNTVERMYRDTFSYNFYNRPILSRRNTVWLCYEVKTKGPSRPPLDAKIFRGQVYSELKYHPEMRFFHWFSKWRKLHRDQEYEVTWYISWSPCTKCTRDMATFLAEDPKVTLTIFVARLYYFWDPDYQEALRSLCQKRDGPRATMKIMNYDEFQHCWSKFVYSQRELFEPWNNLPKYYILLHIMLGEILRHSMDPPTFTFNFNNEPWVRGRHETYLCYEVERMHNDTWVLLNQRRGFLCNQAPHKHGFLEGRHAQLCFLDVIPFWKLDLDQDYRVTCFTSWSPCFSCAQEMAKFISKNKHVSLCIFTARIYDDQGRCQEGLRTLAEAGAKISIMTYSEFKHCWDTFVDHQGCPFQPWDGLDEHSQDLSGRLRAILQNQEN | – | – | – | – | – | – | – | – | enhanced repair was not observed |
